Test results reported in US10251942B2, “Immunity-inducing agent” (TORAY INDUSTRIES, INC., priority 2009, dated 2019).
Where a SMILES comes first, the peptide text is derived from it.

B1: canine recombinant PDS5A protein: full-length canine PDS5A (SEQ ID NO:2) expressed in E. coli; given mixed with Freund's incomplete adjuvant (protein, listed as Canis familiaris)
chain: MDFTAQPKPATALCGVVSADGKIAYPPGVKEITDKITTDEMIKRLKMVVKTFMDMDQDSEDEKQQYLPLALHLASEFFLRNPNKDVRLLVACCLADIFRIYAPEAPYTSHDKLKDIFLFITRQLKGLEDTKSPQFNRYFYLLENLAWVKSYNICFELEDCNEIFIQLFRTLFSVINNSHNKKVQMHMLDLMSSIIMEGDGVTQELLDSILINLIPAHKNLNKQSFDLAKVLLKRTVQTIEACIANFFNQVLVLGRSSVSDLSEHVFDLIQELFAIDPHLLLSVMPQLEFKLKSNDGEERLAVVRLLAKLFGSKDSDLATQNRPLWQCFLGRFNDIHVPVRLESVKFASHCLMNHPDLAKDLTEYLKVRSHDPEEAIRHDVIVTIITAAKRDLALVNDQLLGFVRERTLDKRWRVRKEAMMGLAQLYKKYCLHGEAGKEAAEKVSWIKDKLLHIYYQNSIDDKLLVEKIFAQYLVPHNLETEERMKCLYYLYASLDPNAVKALNEMWKCQNMLRSHVRELLDLHKQPTSEANCSAMFGKLMTIAKNLPDPGKAQDFVKKFNQVLGDDEKLRSQLELLISPTCSCKQADVCVREIARKLANPKQPTNPFLEMVKFLLERIAPVHIDSEAISALVKLMNKSIEGTADDEEEGVSPDTAIRSGLELLKVLSFTHPTSFHSAETYESLLQCLRMEDDKVAEAAIQIFRNTGHKIETDLPQIRSTLIPILHQKAKRGTPHQAKQAVHCIHAIFTNKEVQLAQIFEPLSRSLNADVPEQLITPLVSLGHISMLAPDQFASPMKSVVANFIVKDLLMNDRSTGEKNGKLWSPDEEVSPEVLAKVQAIKLLVRWLLGMKNNQSKSANSTLRLLSAMLVSEGDLTEQKRISKSDMSRLRLAAGSAIMKLAQEPCYHEIITPEQFQLCALVINDECYQVRQIFAQKLHKALVKLLLPLEYMAIFALCAKDPVKERRAHARQCLLKNISIRREYIKQNPMATEKLLSLLPEYVVPYMIHLLAHDPDFTRSQDVDQLRDIKECLWFMLEVLMTKNENNSHAFMKKMAENIKLTKDAQSPDESKMNEKLYTVCDVALCVINSKSALCNADSPKDPVLPMKFFTQPEKDFCNDKSYISEETRVLLLTGKPKPAGVLGAVNKPLSATGRKPYVRSTGAETGSNINVNSELNPSTGNRSREQSSEAVETGVSENEENPVRIISVTPVKNIDPVKNKEINSDQTTQGNISSDRGKKRSVAAAGTENIQQKTDEKVDESGPPAPSKPRRGRRPKSESQGNATKNDDINKPLGKGRKRAAVSQESPGGLEAGNAKAPKLQDVAKKAVPAERQIDLQR
modifications: mixed with Freund's incomplete adjuvant

Experiments:
[1] = system: malignant brain tumor cell line T98G; assay: Chromium 51 release cytotoxicity of peptide-stimulated CD8-positive T cells; type: cell-based, human; conditions: 10^5 T cells and 10^3 T98G cells, 4 hours
Description: In a 50-ml centrifuge tube, 10^5 cells of a malignant brain tumor cell line T98G, whose expression of PDS5A had been confirmed (Stein G H et al., J. Cell Physiol., 99: 43-54 (1979), purchased from ATCC), were collected, and 100 μCi of chromium 51 was added to the tube, followed by incubation at 37° C. for 2 hours. […] Thereafter, the amount of chromium 51 released from damaged tumor cells into the culture supernatant was measured, and thereby the cytotoxic activity of the CD8-positive T cells stimulated with each of the polypeptides shown in SEQ ID NOs:27 to 35 was calculated.
The cytotoxic activity was determined by, as described above, mixing 10^5 CD8-positive T cells stimulated and induced with each of the peptides of the present invention and 10^3 cells of a malignant brain tumor cell line T98G to which chromium 51 was incorporated; culturing the resultant for 4 hours; measuring the amount of chromium 51 released into the culture medium after the culturing; and calculating the cytotoxic activity of the CD8-positive T cells against T98G according to the following equation*. cytotoxic activity (%)=(Amount of chromium 51 released from T98G when CD8-positive T cells were added)/(Amount of chromium 51 released from the target cells to which 1N hydrochloric acid was added)×100. *Equation: […]

perianal adenocarcinoma = assay: Anti-tumor effect of canine recombinant PDS5A protein in patient dog, perianal adenocarcinoma; type: in vivo; conditions: 500 μg protein with Freund's incomplete adjuvant, subcutaneous near tumor, 4 times at 1-week interval; tumor about 370 mm^3 at administration
Description: (§1) With 500 μg (2.5 ml) of the canine recombinant PDS5A protein purified as described in Example 5 below, the same amount of Freund's incomplete adjuvant (manufactured by Wako Pure Chemical Industries, Ltd.) was mixed to prepare a therapeutic agent for cancer, and this therapeutic agent was subcutaneously administered in the vicinity of the tumor in 1 individual each of patient dogs suffering from perianal adenocarcinoma and epidermal squamous cell carcinoma a total of 4 times at 1-week interval.

mammary gland tumor = assay: Anti-tumor effect of recombinant PDS5A protein in tumor-bearing dog, mammary gland tumor; type: in vivo; conditions: 500 μg protein with same amount of Freund's incomplete adjuvant, regional lymph node near tumor, 3 times at 1-week intervals; tumor about 500 mm^3 (dog-derived) or 1000 mm^3 (human-derived) at administration
Description: The anti-tumor effect of the recombinant protein described in Example 5 below in 3 individuals of tumor-bearing patient dogs (3 individuals having a mammary gland tumor) having a tumor mass in the epidermis was evaluated. Before administration, the antibody titer against the recombinant protein in the serum of each patient dog was measured by the method described in Example 5 (3), and, as a result, an antibody titer higher than that of a healthy dog was detected.
With 500 μg (2.5 ml) each of the recombinant PDS5A proteins (dog-derived and human-derived) purified as described above, the same amount of Freund's incomplete adjuvant (manufactured by Wako Pure Chemical Industries, Ltd.) was mixed to prepare 2 kinds of therapeutic agents for cancer, each of which was administered to a regional lymph node in the vicinity of the tumor a total of 3 times at 1-week intervals. […] On the other hand, in the negative control group to which PBS(−) was administered, the tumor volume, which had been about 800 mm^3 at the time of administration of PBS, became 1625 mm^3 on Day 21 after the administration.

[2] = system: epidermal squamous cell carcinoma; assay: Anti-tumor effect of canine recombinant PDS5A protein in patient dog, epidermal squamous cell carcinoma; type: in vivo; conditions: 500 μg protein with Freund's incomplete adjuvant, subcutaneous near tumor, 4 times at 1-week interval; tumor about 280 mm^3 at administration
Description: as §1

Molecule	cytotoxic activity of stimulated CD8-positive T cells against T98G [1]	day on which complete regression of the tumor was achieved (perianal adenocarcinoma) [days]	day on which complete regression of the tumor was achieved (mammary gland tumor) [days]	day on which complete regression of the tumor was achieved [2] [days]
CC(C)C[C@H](NC(=O)[C@H](CCCCN)NC(=O)[C@H](Cc1ccc(O)cc1)NC(=O)[C@H](C)NC(=O)[C@H](CO)NC(=O)[C@H](CS)NC(=O)[C@H](CS)NC(=O)[C@H](CCC(N)=O)NC(=O)[C@@H](N)CC(C)C)C(=O)O [SEQ ID NO:36] (H-LQCCSAYKL-OH)	no cytotoxic activity	–	–	–
B1	–	35	13	42
